Measured values as given in patent publication US20220112296A1 (Chugai, published 2022).
Several values for one entry are separate records, joined by “and”; a condition that tells them apart may be missing. Equal entries are not always repeated.

T1: Human CD3eg linker (human)
T1 construct: CD3 epsilon and gamma subunits joined by a 29-mer linker, C-terminal Flag-tag (in the entry); also called recombinant human CD3
T1 chain: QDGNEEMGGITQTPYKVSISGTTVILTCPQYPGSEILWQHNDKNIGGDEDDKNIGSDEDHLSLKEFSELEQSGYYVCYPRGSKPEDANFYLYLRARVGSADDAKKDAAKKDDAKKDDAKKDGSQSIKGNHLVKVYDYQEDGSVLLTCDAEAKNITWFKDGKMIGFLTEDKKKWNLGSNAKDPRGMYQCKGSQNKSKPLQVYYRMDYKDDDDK

T2: cyno CD137-Fc (cynomolgus monkey; human, biotin-labeled)
T2 construct: whole entry named; also called biotin-labeled cynomolgus monkey CD137 fused to human IgG1 Fc fragment; not shown: human IgG1 Fc fragment
T2 chain: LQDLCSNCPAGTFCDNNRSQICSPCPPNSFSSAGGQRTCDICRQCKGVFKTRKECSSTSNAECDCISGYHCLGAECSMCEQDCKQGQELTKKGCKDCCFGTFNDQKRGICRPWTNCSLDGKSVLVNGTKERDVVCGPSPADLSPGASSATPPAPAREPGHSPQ


Tests used:
Human CD3eg linker = biological target: T1, Human CD3eg linker; assay: SPR Biacore T200, 25 C, Ab captured
Protocol: (§1) Anti-human Fc (GE Healthcare) was immobilized onto all flow cells of a CM4 sensor chip using amine coupling kit (GE Healthcare). […] All antibodies and analytes were prepared in ACES pH 7.4 containing 20 mM ACES, 150 mM NaCl, 0.05% Tween 20, 0.005% NaN3. Sensor surface was regenerated each cycle with 3M MgCl2.

Human CD137 ECD = biological target: T3, Human CD137 ECD (human); assay: SPR Biacore T200, 37 C, Ab captured
T3 construct: C-terminal His-tag and biotin acceptor peptide are in the entry; also called human CD137 extracellular domain; recombinant human CD137
Protocol: as §1

cyno CD137-Fc = biological target: T2, cyno CD137-Fc; assay: bead ELISA
[1] = biological target: T4, biotinylated CD3 epsilon epitope peptide; assay: SPR Biacore, method of Ref. Ex. 12.6
T4 construct: immobilised on CM5 chip via streptavidin

T3 sequence (chain, as listed by the source limits assumed): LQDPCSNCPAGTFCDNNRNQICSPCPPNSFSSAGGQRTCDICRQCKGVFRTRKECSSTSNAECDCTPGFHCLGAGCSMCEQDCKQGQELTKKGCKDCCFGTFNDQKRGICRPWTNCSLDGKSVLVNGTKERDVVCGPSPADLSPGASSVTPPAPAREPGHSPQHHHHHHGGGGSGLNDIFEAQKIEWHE

| Kd (Human CD3eg linker) [nM] | Kd (Human CD137 ECD) [nM] | binding result (cyno CD137-Fc) | Kd [1] | Binder |
| --- | --- | --- | --- | --- |
|  |  | no binding |  | DADU01_3#001 (antibody, V domains shown, also called dBBDu_126; dBBDu126) VH: QVQLVESGGGLVQPGRSLRLSCAASGFTFSIAWMHWVRQAPGKGLEWVAQIKDRVNAYEAYYAPSVKGRFTISRDDSKNSIYLQMNSLKTEDTAVYYCRYVHYASYYDLLGYGGVDAWGQGTTVTVSS VL: DIVMTQSPLSLPVTPGEPASISCRSSQSLVHSNRNTYLHWYQQKPGQAPRLLIYKVSNRFSGVPDRFSGSGSGTDFTLKISRVEAEDVGVYYCGQGTQVPYTFGQGTKLEIK |
|  |  |  | 20 nM and 27 nM | CE115HA340 (antibody, human IgG1, L234A L235A, N297A, V domains shown) VH: QVQLVESGGGLVQPGRSLRLSCAASGFTFSNAWMHWVRQAPGKGLEWVAQIKDKSNNYATYYAESVKGRFTISRDDSKNSIYLQMNSLKTEDTAVYYCRYVHYAAYYGVDAWGQGTTVTVSS VL: DIVMTQSPLSLPVTPGEPASISCRSSQSLVHSNRNTYLHWYQQKPGQAPRLLIYKVSNRFSGVPDRFSGSGSGTDFTLKISRVEAEDVGVYYCGQGTQVPYTFGQGTKLEIK |

More lines, now with the values behind:

| Binder | Kd (Human CD3eg linker) [nM] | Kd (Human CD137 ECD) [nM] | binding result (cyno CD137-Fc) | Kd [1] |
| --- | --- | --- | --- | --- |
| H1643L0581 (antibody, V domains shown, also called H1643L581; Dual) VH: QVQLVESGGGLVQPGRSLRLSCAASGFKFSNVWFHWVRQAPGKGLEWVAQIKDYYNAYAAYYAPSVKGRFTISRDDSKNSIYLQMNSLKTEDTAVYYCHYVHYASASTLLPAEGVDAWGQGTTVTVSS VL: DIVMTQSPLSLPVTPGEPASISCQPSQEVVHMNRNTYLHWYQQKPGQAPRLLIYKVSNRFPGVPDRFSGSGSGTDFTLKISRVEAEDVGVYYCAQGTSHPFTFGQGTKLEIK | 288 | 47.9 |  |  |
| H1673L0943 (antibody, V domains shown) VH: QVQLVESGGGLVQPGRSLRLSCAASGFVFSNVWFHWVRQAPGKGLEWVAQIKDKWNAYADYYAPSVKERFTISRDDSKNSIYLQMNSLKTEDTAVYYCHYIHYASASTLLPAEGIDAWGQGTTVTVSS VL: DIVMTQSPLSLPVTPGEPASISCQPSEEVVHMNRNTYLHWYQQKPGQAPRLLIYKVSNLFPGVPDRFSGSGSGTDFTLKISRVEAEDVGVYYCAQGTHHPFTFGQGTKLEIK | 24.6 | 56.5 |  |  |
